Test results reported in publication PMC3268725.
Where “and” joins values, the source holds several entries; their conditions need not be identical. Identical values can stand only once.

Biological target: E. coli 70S ribosomes (nontranslating, salt-washed) (E. coli)
Test: co-sedimentation

Kd | fold lower affinity than SecY for ribosomes | Molecule
150 nM | – | SecYHisEG complex, purified, in detergent (from UniProt P0AGA2;P0AG96;P0AG99)
– | 5 times lower and 10 times lower | His-tagged YidC, purified (natural protein) MDSQRNLLVIALLFVSFMIWQAWEQDKNPQPQAQQTTQTTTTAAGSAADQGVPASGQGKLISVKTDVLDLTINTRGGDVEQALLPAYPKELNSTQPFQLLETSPQFIYQAQSGLTGRDGPDNPANGPRPLYNVEKDAYVLAEGQNELQVPMTYTDAAGNTFTKTFVLKRGDYAVNVNYNVQNAGEKPLEISSFGQLKQSITLPPHLDTGSSNFALHTFRGAAYSTPDEKYEKYKFDTIADNENLNISSKGGWVAMLQQYFATAWIPHNDGTNNFYTANLGNGIAAIGYKSQPVLVQPGQTGAMNSTLWVGPEIQDKMAAVAPHLDLTVDYGWLWFISQPLFKLLKWIHSFVGNWGFSIIIITFIVRGIMYPLTKAQYTSMAKMRMLQPKIQAMRERLGDDKQRISQEMMALYKAEKVNPLGGCFPLLIQMPIFLALYYMLMGSVELRQAPFALWIHDLSAQDPYYILPILMGVTMFFIQKMSPTTVTDPMQQKIMTFMPVIFTVFFLWFPSGLVLYYIVSNLVTIIQQQLIYRGLEKRGLHSREKKKS
